Blank lines part the entries; values can stand above or below the binder they belong to.
Columns and labels:
[1] = biological target: mouse recombinant GM-CSF (mouse, UniProt P01587); experiment: competition for binding of 125I-mouse G-CSF to COS cells transfected with pJ17
[2] = biological target: T1, rat prolactin (rat, UniProt P01237); experiment: as above
T1 sequence: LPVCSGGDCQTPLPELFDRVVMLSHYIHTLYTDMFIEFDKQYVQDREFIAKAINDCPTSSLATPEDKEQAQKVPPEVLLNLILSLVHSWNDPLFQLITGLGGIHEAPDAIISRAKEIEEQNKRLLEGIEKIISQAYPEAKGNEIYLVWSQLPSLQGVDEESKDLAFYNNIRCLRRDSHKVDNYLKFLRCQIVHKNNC

[3] = biological target: T2, human recombinant M-CSF (human, UniProt P09603); experiment: as above
T2 sequence: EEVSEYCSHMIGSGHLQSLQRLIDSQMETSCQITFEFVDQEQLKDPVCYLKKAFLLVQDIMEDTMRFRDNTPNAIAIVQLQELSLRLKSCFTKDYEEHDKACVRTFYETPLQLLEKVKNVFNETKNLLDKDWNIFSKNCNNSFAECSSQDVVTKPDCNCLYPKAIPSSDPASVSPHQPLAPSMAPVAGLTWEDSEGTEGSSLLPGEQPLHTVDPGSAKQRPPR

[4] = biological target: mouse recombinant LIF (leukemia inhibitory factor) (mouse, UniProt P09056); experiment: as above
[5] = biological target: T3, mouse recombinant IL-6 (mouse, UniProt P08505); experiment: as above
T3 sequence: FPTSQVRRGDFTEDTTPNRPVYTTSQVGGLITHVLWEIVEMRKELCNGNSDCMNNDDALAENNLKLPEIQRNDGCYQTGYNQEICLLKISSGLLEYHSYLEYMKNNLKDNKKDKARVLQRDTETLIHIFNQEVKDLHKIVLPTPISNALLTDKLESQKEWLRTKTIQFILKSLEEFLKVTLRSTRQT

[6] = biological target: mouse recombinant IL-3 (mouse, UniProt P01586); experiment: as above
[7] = biological target: T4, mouse recombinant G-CSF (granulocyte colony-stimulating factor) (mouse, UniProt P09920, radioiodinated (125I, IODO-GEN method) where used as the labelled ligand; unlabelled where used as competitor); experiment: saturation binding of 125I-G-CSF to COS cells transfected with pJ17, Scatchard plot
Method: The binding of ^125I-G-CSF to COS or NFS-60 cells was examined. COS cells grown on 15 cm plates were transfected with 20 µg of the pI62 or pJ17 plasmid. Cells were split into 6-well microtiter plates at 12 hr after the glycerol shock, and grown for 60 hr in DMEM containing 10% FCS. Cells were washed with binding medium, and incubated at 4° C. for 4 hr with ^125I-G-CSF (10 pM to 1.2 nM range). To determine the non-specific binding of ^125I-G-CSF to cells, a large excess of unlabeled G-CSF (800 nM) was incubated in the assay mixture, and the radioactivity bound to the cells was subtracted from the total binding to yield the specific binding.
For binding of G-CSF to NFS-60 cells, 5.2 ×10^6 cells were incubated at 4° C. for 4 hr with various concentrations of ^125I-G-CSF in 0.3 ml of RPMI-1640 medium containing 10% FCS and 20 mM HEPES (pH 7.3). As mentioned above, 1 ×10^6 COS cells transfected with the plasmid pJ17 were incubated with various amounts of ^125I-G-CSF with or without an excess of unlabeled G-CSF. In the FIG. 3A, the specific binding (●) is shown as the difference between total (○) and non-specific binding (Δ). FIG. 3B is the scatchard plot of G-CSF binding data in COS cells, and FIG. 3C is the saturated binding of ^125I-G-CSF to NFS-60 cells, showing total (○), non-specific (Δ) and specific (●) binding to cells. […]

[8] = biological target: T4, mouse recombinant G-CSF (granulocyte …); experiment: saturation binding of 125I-G-CSF to NFS-60 cells, Scatchard plot
Method: For binding of G-CSF to NFS-60 cells, 5.2 ×10^6 cells were incubated at 4° C. for 4 hr with various concentrations of ^125I-G-CSF in 0.3 ml of RPMI-1640 medium containing 10% FCS and 20 mM HEPES (pH 7.3). As mentioned above, 1 ×10^6 COS cells transfected with the plasmid pJ17 were incubated with various amounts of ^125I-G-CSF with or without an excess of unlabeled G-CSF. In the FIG. 3A, the specific binding (●) is shown as the difference between total (○) and non-specific binding (Δ). FIG. 3B is the scatchard plot of G-CSF binding data in COS cells, and FIG. 3C is the saturated binding of ^125I-G-CSF to NFS-60 cells, showing total (○), non-specific (Δ) and specific (●) binding to cells. The specific binding is the difference between the total and non-specific binding. FIG. 3D is the scatchard plot of G-CSF binding data on NFS-60 cells. […] If the transfection efficiency of COS cells was assumed to be 10 to 20% (Sympayrac and Danna, Proc. Natl. Acad. Sci. USA, 78, 7575–7578 (1981)), the positively transfected COS cells probably expressed the recombinant G-CSF receptor at 1.5-3.0 ×10^5 molecules per cell.

[9] = biological target: T4, mouse recombinant G-CSF (granulocyte …); experiment: saturation binding of murine 125I-G-CSF to COS cells transfected with pHQ3, Scatchard plot

binding result [1]: no binding
binding result [2]: no binding
binding result [3]: no binding
binding result [4]: no binding
binding result [5]: no binding
binding result [6]: no binding
Kd [7]: 0.29 nM
B1: recombinant murine G-CSF receptor expressed on COS cells (plasmids pI62, pJ17) (receptor)
chain: CGHIEISPPVVRLGDPVLASCTISPNCSKLDQQAKILWRLQDEPIQPGDRQHHLPDGTQESLITLPHLNYTQAFLFCLVPWEDSVQLLDQAELHAGYPPASPSNLSCLMHLTTNSLVCQWEPGPETHLPTSFILKSFRSRADCQYQGDTIPDCVAKKRQNNCSIPRKNLLLYQYMAIWVQAENMLGSSESPKLCLDPMDVVKLEPPMLQALDIGPDVVSHQPGCLWLSWKPWKPSEYMEQECELRYQPQLKGANWTLVFHLPSSKDQFELCGLHQAPVYTLQMRCIRSSLPGFWSPWSPGLQLRPTMKAPTIRLDTWCQKKQLDPGTVSVQLFWKPTPLQEDSGQIQGYLLSWNSPDHQGQDIHLCNTTQLSCIFLLPSEAQNVTLVAYNKAGTSSPTTVVFLENEGPAVTGLHAMAQDLNTIWVDWEAPSLLPQGYLIEWEMSSPSYNNSYKSWMIEPNGNITGILLKDNINPFQLYRITVAPLYPGIVGPPVNVYTFAGERAPPHAPALHLKHVGTTWAQLEWVPEAPRLGMIPLTHYTIFWADAGDHSFSVTLNISLHDFVLKHLEPASLYHVYLMATSRAGSTNSTGLTLRTLDPSDLNIFLGILCLVLLSTTCVVTWLCCKRRGKTSFWSDVPDPAHSSLSSWLPTIMTEETFQLPSFWDSSVPSITKITELEEDKKPTHWDSESSGNGSLPALVQAYVLQGDPREISNQSQPPSRTGDQVLYGQVLESPTSPGVMQYIRSDSTQPLLGGPTPSPKSYENIWFHSRPQETFVPQPPNQEDDCVFGPPFDFPLFQGLQVHGVEEQGGF

Kd [8]: 0.18 nM
B2: native murine G-CSF receptor on NFS-60 cells (receptor)
chain: CGHIEISPPVVRLGDPVLASCTISPNCSKLDQQAKILWRLQDEPIQPGDRQHHLPDGTQESLITLPHLNYTQAFLFCLVPWEDSVQLLDQAELHAGYPPASPSNLSCLMHLTTNSLVCQWEPGPETHLPTSFILKSFRSRADCQYQGDTIPDCVAKKRQNNCSIPRKNLLLYQYMAIWVQAENMLGSSESPKLCLDPMDVVKLEPPMLQALDIGPDVVSHQPGCLWLSWKPWKPSEYMEQECELRYQPQLKGANWTLVFHLPSSKDQFELCGLHQAPVYTLQMRCIRSSLPGFWSPWSPGLQLRPTMKAPTIRLDTWCQKKQLDPGTVSVQLFWKPTPLQEDSGQIQGYLLSWNSPDHQGQDIHLCNTTQLSCIFLLPSEAQNVTLVAYNKAGTSSPTTVVFLENEGPAVTGLHAMAQDLNTIWVDWEAPSLLPQGYLIEWEMSSPSYNNSYKSWMIEPNGNITGILLKDNINPFQLYRITVAPLYPGIVGPPVNVYTFAGERAPPHAPALHLKHVGTTWAQLEWVPEAPRLGMIPLTHYTIFWADAGDHSFSVTLNISLHDFVLKHLEPASLYHVYLMATSRAGSTNSTGLTLRTLDPSDLNIFLGILCLVLLSTTCVVTWLCCKRRGKTSFWSDVPDPAHSSLSSWLPTIMTEETFQLPSFWDSSVPSITKITELEEDKKPTHWDSESSGNGSLPALVQAYVLQGDPREISNQSQPPSRTGDQVLYGQVLESPTSPGVMQYIRSDSTQPLLGGPTPSPKSYENIWFHSRPQETFVPQPPNQEDDCVFGPPFDFPLFQGLQVHGVEEQGGF

Kd [9]: 0.55 nM
B3: human G-CSF receptor, class 1 (plasmid pHQ3), expressed on COS cells (receptor)
chain: EECGHISVSAPIVHLGDPITASCIIKQNCSHLDPEPQILWRLGAELQPGGRQQRLSDGTQESIITLPHLNHTQAFLSCCLNWGNSLQILDQVELRAGYPPAIPHNLSCLMNLTTSSLICQWEPGPETHLPTSFTLKSFKSRGNCQTQGDSILDCVPKDGQSHCCIPRKHLLLYQNMGIWVQAENALGTSMSPQLCLDPMDVVKLEPPMLRTMDPSPEAAPPQAGCLQLCWEPWQPGLHINQKCELRHKPQRGEASWALVGPLPLEALQYELCGLLPATAYTLQIRCIRWPLPGHWSDWSPSLELRTTERAPTVRLDTWWRQRQLDPRTVQLFWKPVPLEEDSGRIQGYVVSWRPSGQAGAILPLCNTTELSCTFHLPSEAQEVALVAYNSAGTSRPTPVVFSESRGPALTRLHAMARDPHSLWVGWEPPNPWPQGYVIEWGLGPPSASNSNKTWRMEQNGRATGFLLKENIRPFQLYEIIVTPLYQDTMGPSQHVYAYSQEMAPSHAPELHLKHIGKTWAQLEWVPEPPELGKSPLTHYTIFWTNAQNQSFSAILNASSRGFVLHGLEPASLYHIHLMAASQAGATNSTVLTLMTLTPEGSELHIILGLFGLLLLLTCLCGTAWLCCSPNRKNPLWPSVPDPAHSSLGSWVPTIMEEDAFQLPGLGTPPITKLTVLEEDEKKPVPWESHNSSETCGLPTLVQTYVLQGDPRAVSTQPQSQSGTSDQVLYGQLLGSPTSPGPGHYLRCDSTQPLLAGLTPSPKSYENLWFQASPLGTLVTPAPSQEDDCVFGPLLNFPLLQGIRVHGMEALGSF

From patent US5574136, “DNA encoding granulocyte colony-stimulating factor receptor and protein thereof” (Osaka Bioscience Institute, dated 1996)
